IntAct's records for PubMed 20802513

B1: Focal adhesion kinase 1 (Gallus gallus (Chicken)), Q00944 (parent)
chain: MAAAYLDPNLNHTPSSSAKTHLGTGMERSPGAMERVLKVFHYFENSSEPTTWASIIRHGDATDVRGIIQKIVDCHKVKNVACYGLRLSHLQSEEVHWLHLDMGVSNVREKFELAHPPEEWKYELRIRYLPKGFLNQFTEDKPTLNFFYQQVKNDYMLEIADQVDQEIALKLGCLEIRRSYGEMRGNALEKKSNYEVLEKDVGLRRFFPKSLLDSVKAKTLRKLIQQTFRQFANLNREESILKFFEILSPVYRFDKECFKCALGSSWIISVELAIGPEEGISYLTDKGANPTHLADFNQVQTIQYSNSEDKDRKGMLQLKIAGAPEPLTVTAPSLTIAENMADLIDGYCRLVNGATQSFIIRPQKEGERALPSIPKLANNEKQGVRSHTVSVSETDDYAEIIDEEDTYTMPSTRDYEIQRERIELGRCIGEGQFGDVHQGIYMSPENPAMAVAIKTCKNCTSDSVREKFLQEALTMRQFDHPHIVKLIGVITENPVWIIMELCTLGELRSFLQVRKFSLDLASLILYAYQLSTALAYLESKRFVHRDIAARNVLVSATDCVKLGDFGLSRYMEDSTYYKASKGKLPIKWMAPESINFRRFTSASDVWMFGVCMWEILMHGVKPFQGVKNNDVIGRIENGERLPMPPNCPPTLYSLMTKCWAYDPSRRPRFTELKAQLSTILEEEKLQQEERMRMESRRQVTVSWDSGGSDEAPPKPSRPGYPSPRSSEGFYPSPQHMVQPNHYQVSGYSGSHGIPAMAGSIYPGQASLLDQTDSWNHRPQEVSAWQPNMEDSGTLDVRGMGQVLPTHLMEERLIRQQQEMEEDQRWLEKEERFLVMKPDVRLSRGSIEREDGGLQGPAGNQHIYQPVGKPDHAAPPKKPPRPGAPHLGSLASLNSPVDSYNEGVKIKPQEISPPPTANLDRSNDKVYENVTGLVKAVIEMSSKIQPAPPEEYVPMVKEVGLALRTLLATVDESLPVLPASTHREIEMAQKLLNSDLAELINKMKLAQQYVMTSLQQEYKKQMLTAAHALAVDAKNLLDVIDQARLKMISQSRPH

Variants of: B1
Details: with pgfrb_human PDGFRB

Variant	effect of a mutation on the interaction
Y5F;Y194F	disrupting interaction
